Primed or numbered codes have the meaning given here. No end group written: not given here. *: point of attachment. 5FAM = O=C1OC2(c3ccc(O)cc3Oc3cc(O)ccc32)c2ccc(C(=O)*)cc21; FITC′ = fluorescein isothiocyanate

T1 sequence (P10415 with tags, fused parts or gaps with the stated changes): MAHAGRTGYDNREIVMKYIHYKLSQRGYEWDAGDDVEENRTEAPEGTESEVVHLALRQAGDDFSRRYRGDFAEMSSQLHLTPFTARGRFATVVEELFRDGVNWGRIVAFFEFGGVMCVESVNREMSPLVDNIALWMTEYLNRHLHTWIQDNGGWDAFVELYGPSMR

The first test deals with mutant Bcl-2/iso1 protein (Bcl-2/iso1 residues 1-34, Bcl-xL loop residues 29-44, Bcl-2/iso1 residues 92-207; plasmid C) (human). As to the kind of experiment: competitive fluorescence polarization, displacement of a fluorescein-labeled peptide probe from Bcl-2 (340 nM).
NLWAAQRYGRELRRMSDEFVDSFKK [peptide … (SEQ ID NO:20)]: the Kd (as a rule, the concentration at which binding is half-saturated) came out at 14 nM.
For NLWAAQRYARELRRMSDEFVAAFKK [peptide … (SEQ ID NO:32)], the Kd was determined as 186 nM.
Same read-out and setting: the figure for NLWGAQRYGRELRRMSDEFVDSFKK [peptide … (SEQ ID NO:24)] is 159 nM.
On the same count and under the same terms, the figure for NLPAAQRYGRELRRMSDEFVDSFKK [peptide … (SEQ ID NO:31)] is 54 nM.
Still for that read-out and setting: the figure for NLWAAQRYGRELRRMSDEFVDSFAK [peptide … (SEQ ID NO:28)] is 123 nM; for NLAAAQRYGRELRRMSDEFVDSFKK [peptide … (SEQ ID NO:23)] it is 39 nM.
On to NLWAGQRYGRELRRMSDEFVDSFKK [peptide … (SEQ ID NO:25)], for which the Kd came to 105 nM.
Still for that read-out and setting: in the case of ALWAAQRYGRELRRMSDEFVDSFKK [peptide … (SEQ ID NO:21)] it was 211 nM; in that of NLWAAQRYGRELRRMSDEFVDAFKK [peptide … (SEQ ID NO:26)], 26 nM; in that of NAWAAQRYGRELRRMSDEFVDSFKK [peptide … (SEQ ID NO:22)], 75 nM.
Same read-out and setting: in the case of NLWAAQRYGREARRMSDEFVDSFKK [peptide … (SEQ ID NO:33)] it was 7480 nM.
The same measure, in the same setting: in the case of NLWAAQRYGRELRRMSDEFVDSAKK [peptide … (SEQ ID NO:27)] it was 397 nM; in that of NLWAAQRYGRELRRMSAEFVDSFKK [peptide … (SEQ ID NO:34)], 762 nM.
Molecule QRYGRELRRMSDEFVDSFKK [peptide … (SEQ ID NO:35)] had a Kd of 711 nM.
Same read-out and setting: the figure for NLWAAQRYGRELRRMSDEFVDSFKA [peptide … (SEQ ID NO:29)] is 22 nM.
Still for that read-out and setting: the figure for NLWAAQRYGRELRRMSDEFVD [peptide … (SEQ ID NO:36)] is 2330 nM.
Same read-out and setting: the figure for AAAAAQRYGRELRRMSDEFVDSFKK [peptide … (SEQ ID NO:17), not labeled] is 74 nM.
In turn, GGGAAQRYGRELRRMSDEFVDSFKK [peptide … (SEQ ID NO:30)] came in with a Kd of 63 nM.

For the next test, the target named is mutant Bcl-2/iso2 protein (plasmid C construct with Ala96 to Thr96 and Gly110 to Arg110; plasmid D) (human). The description is as above.
NLWAAQRYGRELRRMSDEFVDSFKK [peptide … (SEQ ID NO:20)] yielded a Kd of 8 nM.
On the same count and under the same terms, in the case of GQVGRQLAIIGDDINR [peptide … (SEQ ID NO:37)] it was 1600 nM.

The next test has as its target mutant Bcl-2/iso1 protein (Bcl-2/iso1 residues 1-34, Bcl-xL loop residues 29-44, Bcl-2/iso1 residues 92-207; plasmid C) (human). As to the kind of experiment: fluorescence polarization, direct titration of the fluoresceinated peptide with Bcl-2.
5FAM-AAAAAQRYGRELRRMSDEFVDSKK [(5-FAM)-… (SEQ ID NO:18), fluorescein-labeled peptide probe (2)] came in with a Kd of 50 nM.
Regarding {FITC′}-AAQRYGRELRRMSDEFVR [(FITC)-… (SEQ ID NO:19), fluorescein-labeled peptide probe (3)], the Kd came out at 100 nM.
The same measure, in the same setting: the figure for 5FAM-AAAAAQRYGRELRRMSDEFVDSFKK [(5-FAM)-… (SEQ ID NO:17), fluorescein-labeled peptide probe (1)] is 20 nM.

A further test has as its target T1, Bcl-2/iso1 (Homo sapiens, UniProt P10415, DEL35-91/INS34DVEENRTEAPEGTESE/R110G/T96A).
T1 construct: His tag (pET28b, thrombin-cleavable) (N, cleaved yes); made in house; host or cells: E. coli BL21(DE3)
Nature of the test: Competitive fluorescence polarization assay, peptide binding to Bcl-2/iso1. How it is done: A competitive fluorescence polarization assay was used to measure the affinity of various peptides for Bcl-2/iso1 (see Table 2) or Bcl-2/iso2 (see Table 3). Competitive assays were performed using one of the following three fluorescein-labeled peptides as a probe:
All titrations were automated by means of an Abbott clinical diagnostics instrument (IMx, FPIA mode) modified with a special protocol for performing titrations. A complete two-fold dilution series, comprised of twenty separate 2 mL samples, was obtained by delivering appropriate individual aliquots to the first seven tubes, aliquots from an intermediate diluted stock for the next seven, and one more intermediate dilution for the final six. […] The final DMSO concentration for all samples never exceeded 1%. Twenty 1.8 uL samples were prepared without fluoresceinatedpeptide and read as blanks. To each tube, 0.2 uL of a Bcl-2, fluoresceinatedpeptide mixture was added; the tubes were incubated for 5 min at 35° C., and then read for total intensity and polarization.
The molecule “NLWAAQRYGRELRRMSAEFVDSFKK [SEQ ID NO:34]” returned a Kd of 762 nM.
Same read-out and setting: in the case of “NAWAAQRYGRELRRMSDEFVDSFKK [SEQ ID NO:22]” it was 75 nM; in that of “NLAAAQRYGRELRRMSDEFVDSFKK [SEQ ID NO:23]”, 39 nM; in that of “NLWAAQRYGRELRRMSDEFVDSFAK [SEQ ID NO:28]”, 123 nM.
Same read-out and setting: the figure for “NLPAAQRYGRELRRMSDEFVDSFKK [SEQ ID NO:31]” is 54 nM; for “NLWGAQRYGRELRRMSDEFVDSFKK [SEQ ID NO:24]” it is 159 nM.
Same read-out and setting: in the case of “ALWAAQRYGRELRRMSDEFVDSFKK [SEQ ID NO:21]” it was 211 nM; in that of “NLWAGQRYGRELRRMSDEFVDSFKK [SEQ ID NO:25]”, 105 nM.
With “NLWAAQRYGREARRMSDEFVDSFKK [SEQ ID NO:33]”, binding was put at a Kd of 7480 nM.
In turn, “AAAAAQRYGRELRRMSDEFVDSFKK [SEQ ID NO:17]” came in with a Kd of 74 nM.
Regarding “NLWAAQRYGRELRRMSDEFVDAFKK [SEQ ID NO:26]”, the Kd turned out to be 26 nM.
NLWAAQRYGRELRRMSDEFVD [SEQ ID NO:36] came in with a Kd of 2330 nM.
On the same count and under the same terms, the figure for “NLWAAQRYGRELRRMSDEFVDSAKK [SEQ ID NO:27]” is 397 nM; for “NLWAAQRYARELRRMSDEFVAAFKK [SEQ ID NO:32]” it is 186 nM; for “GGGAAQRYGRELRRMSDEFVDSFKK [SEQ ID NO:30]” it is 63 nM.
On the same count and under the same terms, the figure for QRYGRELRRMSDEFVDSFKK [SEQ ID NO:35] is 711 nM; for “NLWAAQRYGRELRRMSDEFVDSFKA [SEQ ID NO:29]” it is 22 nM.

For the origin of these results see patent publication US7226992B1, “Mutant Bcl-2 proteins and uses thereof” (Abbott Laboratories, priority 2000, dated 2007).
